Consider 1 molecule from paper PMC9609871 (2022).

The target of this experiment is PP2A catalytic subunit alpha (Homo sapiens, UniProt P67775). The experiment in a line: biolayer interferometry (PP2A immobilized). In general terms: BLI is a label-free optical method that tracks binding on a fibre tip over time.
Chain of PP2A catalytic subunit alpha (P67775 whole entry): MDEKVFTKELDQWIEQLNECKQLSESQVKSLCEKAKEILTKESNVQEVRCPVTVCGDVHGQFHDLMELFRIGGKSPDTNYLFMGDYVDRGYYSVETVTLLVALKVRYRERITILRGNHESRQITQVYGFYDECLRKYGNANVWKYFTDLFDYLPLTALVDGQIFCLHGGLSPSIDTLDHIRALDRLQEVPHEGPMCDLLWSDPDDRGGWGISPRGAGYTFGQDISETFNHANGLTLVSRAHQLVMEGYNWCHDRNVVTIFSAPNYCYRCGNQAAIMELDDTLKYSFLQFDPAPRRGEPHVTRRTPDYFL

B1: Caspase 9 (protein)
chain: DEADRRLLRRCRLRLVEELQVDQLWDALLSRELFRPHMIEDIQRAGSGSRRDQARQLIIDLETRGSQALPLFISCLEDTGQDMLASFLRTNRQAAKLSKPTLENLTPVVLRPEIRKPEVLRPETPRPVDIGSGGFGDVGALESLRGNADLAYILSMEPCGHCLIINNVNFCRESGLRTRTGSNIDCEKLRRRFSSLHFMVEVKGDLTAKKMVLALLELAQQDHGALDCCVVVILSHGCQASHLQFPGAVYGTDGCPVSVEKIVNIFNGTSCPSLGGKPKLFFIQACGGEQKDHGFEVASTSPEDESPGSNPEPDATPFQEGLRTFDQLDAISSLPTPSDIFVSYSTFPGFVSWRDPKSGSWYVETLDDIFEQWAHSEDLQSLLLRVANAVSVKGIYKQMPGCFNFLRKKLFFKTS
Consider B1, for which binding was characterised by a dissociation constant (Kd) of 228 nM.
